Reference: the supplement of paper PMC12636428

Tested on: Saccharomyces cerevisiae
Experiment: transcriptional activation domain activity (GFP:mCherry ratio, weighted mean of sorted bins, harmonized to initial dataset scale) (arbitrary fluorescence ratio units); higher = stronger transcriptional activation
Settings: beta-estradiol 1 µM; induction time 4 h
Outline: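 Values are activation activity, found as the read-weighted mean of bin median fluorescence, averaged across barcodes and then mapped linearly onto the initial dataset scale. Barcoded protein tiles fused to an estradiol-inducible synthetic transcription factor were integrated at the URA3 locus of GFP-reporter yeast diploids. Cells were induced for 4 hours at 30 °C with 1 uM beta-estradiol in SC, sorted into 8 bins by GFP:mCherry ratio, and barcode-sequenced, with tiles under 50 reads discarded.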

| Sequence | transcriptional activation domain activity |
| --- | --- |
| TLGFVVDRYFRVKNFVPEPFWTIKVMHHKDGKKVNFNWARHRLFDRMSVIILY | 64300 |
| TLHFFQPIAKWFGIKKSSKLIRFGEQGHAMAYFAVTSCWGLRVMRQLPTWWYR | 41500 |
| TLHHKHVVLWNTSRQVATEVIRLPFSCSGKMLCLLLLPEAEDGLKRVHVVALS | 25600 |
| TLHIVLVSYGMYFYLILNFANIAALLSPSWAFLVQVYLTCISDTVVRSVFFSR | 69200 |
| TLHVCFVEMRLADVVVDFLSRCSATINLAFFDTRLWHPNLLPILGALPLQRLS | 87200 |
| TLIHEPDQLLFFPFFLFALFLSFPSFLLPSFFLLFLLFYFFPSYLLLCLFSFI | 51700 |
| TLKALCRFITWLSIEHIMGANLIYKLKAWLKMYRNLVIQCYIEIANLDIPTSV | 56900 |
| TLKGIVLRNPVTLRLEEEEDDAANLTQYFVKCSEVDKFLLIQVMIKMRMIKGK | 46700 |
| TLLASFVIDHLKEGVASDEIVLFAFADFQDTRSTNVVVLLRTLLAQLLDRCKP | 65200 |
| TLLFQIVIAFIDILRHLSLYKIEIENDTICALVGASMNFSDHIYVAFNTLLAI | 49500 |
| TLLIASLLVVLCLLRRFLLSILCNRDFYMIKFYTFFLYQILLCSLLKCLRLLW | 80500 |
| TLLYLYTFSFLFPPLLFILILLHLHHLSSSHLFFIHSIILSHNKLWPLLFLLS | 53400 |
| TLMVLCENSYTTISRFILLDSMLLFFTFTTMLCFARFHNLQSRSFSFQWWLWI | 51800 |
| TLPFQIFMICDLTVPLKLNGFLVNGSLNLLGIMMVRVTFSCLGLAQLFQLIIC | 62100 |
| TLPGGTTGEFGRDRPTTNAFGSSTGAFGAPAANNNPFGAPAQPAGAFGQPSAL | 44800 |
| TLPQEDTQSTEDTKVEKKLVIASLLSRMLIPTIIMAPLLALTAKFVPVSILDD | 52400 |
| TLQRIVLDFFTAPCFSDVIVADILTSFARVFGDLSTVFFTLVWGSCPHWIPPF | 61200 |
| TLRQELPNFFIFGLNNTSIYSSNILLWEPRYTGLQIRGKWSYLMLAATIRWSL | 54000 |
| TLRVDSLTGMIRIIRHVDFDGLPRPSGSGVITPFGIVFGGVCRGYWLWLWKVD | 35800 |
| TLRVLLLQISPLAYARGLKDFLIHLISWTDGTWDSLDPLPWWWLYHVYWPLQF | 81000 |
| TLRVSNLLCWFLLCLTSVPGLGIVYYTYFLLPDTPYCLWALCLYTKSFIAPLM | 63000 |
| TLSGVLMLFWQPNGQRLIGNATLWCWIRPGLEFYRIVLNYGWIWIILGVNICT | 73100 |
| TLTDKCFGAFEDENAIHFHNFHVVSPKYMVILVNCLYMWDLMKTVGLRKPWSG | 68200 |
| TLTLLLRERGYELFLLVHFIFVLYVNFLSCLSVRSPLCIVYYGAWPSMIVWGI | 64600 |
| TLTQRLSGSMIYIWCSGGVVFAIVLALQVLVLFALLNVITCLEGHMLSIHGWP | 39900 |

| Sequence | transcriptional activation domain activity |
| --- | --- |
| TLTSPQGSDLASNSATQYKPDLEDFLMQNSNFNGLMINPSSLVEVVGGYNDPN | 83200 |
| TLVEINGNQIRGSSELMDKDNIYLHLRRIFTCFQIEFLKLTGLPFLLREKLPG | 63400 |
| TLWLLLLCLRCSTSVLALLTLLSCSSFPPFLGFHLSRALWPVLRCPLPSMLCS | 59400 |
| TLYWSYGMYIMYNGPHWLNTSYYWIDYPHILISRQTKTYYLMQLAFWVQQVYT | 41600 |
| TMDKQIKYFWSSPCKFISLIYFANRYIGILEAISEIARLGFIWLQNLADILLM | 43800 |
| TMEMAWLDMGRFFYFLFFYFLFFLLSSFFVFFYSFIYFFFSLLLFFFILWLEM | 45900 |
| TMFHGLLFHLCHGAAVLVVWSFHHVVCSMRDDEETLQVMEELDYVIHVLNAFA | 47800 |
| TMHLNVVFISVVVNGFCSEHGFVSMRLWAVYKSLSLVLWMSFFIVLCWVGMIV | 53600 |
| TMSMLCLEGFIIIYLLRETTLSFLDIIRCFSSMDPVALKLFVRCFLYTLVMCG | 77500 |
| TMSTVMVVGSDDKKVKEVGEALKSKLGVKGGGKGSRWSGKFTGVWKDSREGAL | 27000 |
| TMWHCMDLLFCVAPGRLIRETASGLYVHHCFECGTKLEPQPLHSLTITAYHLA | 52300 |
| TMYYDAIWLMWKDHSLQGWEVAHNTFDQLHVVLDDHLLYPVLNLLMIVIILPD | 51200 |
| TNAENSSQPSLAQWAKGREGVLMISSDVISNVQISIGKSRLASLLISLCLQRM | 47300 |
| TNLLDRFQTYMERSRFHLLDLLFDFSSHFSAPLMKLAMQHARRWRRFSIFAFW | 45100 |
| TNLYDHAVTPEILLEQLAYVDNFIPSLDNEFSNVDWNVNTTHNNANNNGADTF | 47300 |
| TNNEFEGESDDFVHSPYLNSEADFSQILSSAPPVHHDPNETHQENQDIIDRFA | 66800 |
| TNNWNPVHWDWNIFRQIVNFNWVLLFYFIFLLFSLFFHFIPVSCISIFYYFFS | 25100 |
| TNPAAAVAAAVAAKKTDTEEETTPKEDKAEEAKPEEEKKEEKKEEKAAAKSRS | 33900 |
| TNPAFANSSLPPIHSSFSTLSNPPSIFCVLPPFLPSFPLSFPFFFSFPFFLFL | 52500 |
| TNPDKIRLIPGFKYLQLVLGRDQYCREILAMMARMGFLMPKTMYSTLLRLWLL | 65200 |
| TNSEEDALDAWDLCATKMSLALVQLVQMFEEKELLSSLNVLLRLVTRISTAIP | 45700 |
| TNTGFGASNTPAGGAGGGGGIFGSGTSGFGGGTSAFGAANNNNAFGAKPAFGA | 45600 |
| TPANSSSTMALVPKEEQKEEEEKSTPADSGSTTASVPKEEEKEEEKSTPADSG | 44400 |
| TPDSLCEAVTDLVRDIWYPLMTWMEFANPASGYISLDAPLFRAVLSLFHHFFA | 42900 |
| TPECLTKINWNVLRLSSYLSSVATSHFLELSTIIGITLIQLIWLLHPPCLLFL | 45400 |

| Sequence | transcriptional activation domain activity |
| --- | --- |
| TPEFHGQADVDTGILTLKKDEDIRDHPDAARFAEESKAARITKRGAREGLEHV | 22000 |
| TPFALFSSCYALNATVDQDYPLLFRRCVLGDTLWVLAILLCILWSLLVCFAFW | 31300 |
| TPFLFYRPLPPQYFCKFLLYYGGLVWWVLYSGFFFYFILGRGYRKIFLSYFCL | 53100 |
| TPGGSSGGTGAAVASSFSVFGTGTDTVNSLRSPASANSLFSCRPTRGLITRNG | 58000 |
| TPIDVETDDPDIYIKPALDGSLNLLTSIVRYGQVIRGLSSCIIHLFNNVHLVR | 43000 |
| TPIFMLIRIMIIGAHGVYQTAYRIVTKTQWEDGREIEDVYTYVGNERIDIKIV | 28300 |
| TPKKAKKSAERVDDSDASDDGDGYGGGGGEDGRKRAAKPKKGKRAAAGGGSAG | 26200 |
| TPLLLFFWCLCWFLSRSWYVYCFCYLNDWYNKVMMLWNLFHHHRFLLLYTRGL | 35200 |
| TPLRISLFLVRVRCRHPSYSKWLPVEIKRCGVLLMSRLSLSLYRIFLNHITLN | 59900 |
| TPNNLTSFDDCHLIDGLELTYSDLLVLDDFLAFDFLGLDHFIFMVTPPWENVV | 81000 |
| TPQCPPTPTPPPAPASKSRPPPHTPTSTRARNNPPPPSCACGGCTRATSGSRR | 33800 |
| TPSSLLHLFPRVQEFLLFYSIHLSISWVWSCLILFYDVSFTIFSIFIILLLFL | 60300 |
| TPSSTATTAAPAATSAATPSLFSKPATTSAAPATATAAASTPSGNLFGAKAAA | 47500 |
| TPSTCLSFLPFFPLLLPLFFSFPLSLIFFLCNFSFQFFFSSCFLSFYLFVVSF | 66100 |
| TPTAQYQQGYHFRHLRYVMCLSVAVLIVGAVSLTIPLPISARIASILRFWEHD | 44200 |
| TPVYIGPLDGGAGDAQHGRKGGESRFQITPRKTVRLGEDGKGRKVSVEQRIVC | 49400 |
| TPYWVLWNLRSSYGPVWQFLLKWIPFNMLLHRYYHCVKMELGYLFIFGNDFLR | 56300 |
| TQAGPSTGGGVFGQPSQPSTSTNAFGGGNGLFGSKPTTGFGTATTPAAGVPAP | 53600 |
| TQATIVGDFFVCLMDVAGHDLAILLINWRAQTGTWLIFDSLEPLMWPHRITLV | 40300 |
| TQLIELNVPMGKVGMVVDNSSDKLEIEDIVVYWSLRSRPVWLVYVRAFLKSII | 56200 |
| TQPIDIAASNQQNGEIAQLWDFNVDQFNMTPSNSSGSATISAPNSFTSDIPQY | 57300 |
| TQQLEFWLPWQWIQANVFFPCVSYIYFRDWREMMEILLSYRSIEMDGLAFCLV | 69300 |
| TRCLLMYMYFLQDIGIYIYCILILNLFRKVRRLIPFPSRVLMVLHVITICIFT | 74300 |
| TRDDEEGGEEEEEEEEEEEEDEEDEDPESLPHIHKALEIHYQIHLSPTYSVPV | 52700 |
